Key:
[1] = biological target: His-tagged full-length Ajuba (UniProt Q96IF1); test: pull-down; His-tag pull-down on Ni-NTA beads of proteins co-translated in one rabbit reticulocyte lysate reaction with 35S-methionine; beads blocked with 2% BSA, 30 minutes at room temperature, TBST pH 8.0, six washes; autoradiography, signal normalized to input and number of methionines
[2] = biological target: LIM protein Ajuba (human (endogenous in HTC75)) (UniProt Q96IF1); test: co-IP; IP-Western of endogenous proteins from HTC75 total extracts (also IMR90) with Ajuba serum or antibodies to RPA70, RPA32 or RPA14; cells untreated, treated with 2 mM hydroxyurea for 24 hr (association reduced) or synchronized by double thymidine block and released for 2 hr (no perceptible effect)

RPA70-OB½ABC, sequence (P27694 234-612): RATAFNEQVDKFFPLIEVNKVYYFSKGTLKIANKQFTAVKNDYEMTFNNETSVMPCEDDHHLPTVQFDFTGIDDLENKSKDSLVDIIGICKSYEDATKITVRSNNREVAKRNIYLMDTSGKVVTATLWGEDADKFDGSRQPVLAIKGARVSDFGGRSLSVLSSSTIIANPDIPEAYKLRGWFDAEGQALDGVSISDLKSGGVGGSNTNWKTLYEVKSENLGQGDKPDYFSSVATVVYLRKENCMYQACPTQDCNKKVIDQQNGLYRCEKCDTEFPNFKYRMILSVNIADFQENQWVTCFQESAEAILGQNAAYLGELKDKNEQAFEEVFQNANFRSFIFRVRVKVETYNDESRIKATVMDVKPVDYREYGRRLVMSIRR

Substance	pull down relative to full-length RPA70 (set at 100%) [1] [%]	pull down efficiency (% of total RPA in association with Ajuba) [2] [%]
RPA70-OB½ABC (from UniProt P27694 234-612) (domain or fragment)	58.7	–
total RPA	–	2 to 5

From PMC6015067
